Nine molecules from patent US20120107330A1 (published 2012) can be followed below.

The target in test [1] is T1, mouse serum albumin (MSA, Sigma-Aldrich) (mouse, UniProt P07724 25-608).
T1 construct: also called mouse albumin
In words: BIAcore, MSA on CM5 chip. As for the experimental part: FIG. 22. BIAcore analysis for binding of DOM0100-AlbudAb in-line fusions to mouse serum albumin (MSA). MSA (Sigma-Aldrich) was coated on a BIAcore CM5 chip using EDC/NHS chemistry according to manufacturer's instructions. Subsequently, the DMS constructs, each consisting N-terminally to C-terminally of an anti-TNFR1 dAb-Linker-AlbudAb and identified in Table 6, were injected at 1 μM over the MSA surface and binding was monitored. […] The corresponding BIAcore trace for each DMS clone is indicated with an arrow.
After expression and purification, all constructs were tested on the BIAcore for binding to both mouse and human serum albumin. The off-rates were determined and used to discriminate between the AlbudAbs for their suitability in prolonging the half-life of the fusion molecule. Whereas the linker had little influence on the affinity of the AlbudAb for albumin, a significant difference existed between the dAbs and their albumin affinity. The best AlbudAb for mouse binding was DOM7h-11-15 followed by DOM7m-16 and DOM7h-11-12 (FIG. 22).

Test [2] has as its target T2, human serum albumin (HSA, Sigma-Aldrich) (human, UniProt P02768 25-609).
T2 construct: also called human albumin
In words: BIAcore, HSA on CM5 chip. As for the experimental part:
FIG. 23. BIAcore analysis for binding of DOM0100-AlbudAb in-line fusions to human serum albumin (HSA). HSA (Sigma-Aldrich) was coated on a BIAcore CM5 chip using EDC/NHS chemistry according to manufacturer's instructions. Subsequently, the DMS constructs, each consisting N-terminally to C-terminally of an anti-TNFR1 dAb-Linker-AlbudAb and identified in Table 6, were injected at 1 μM over the HSA surface and binding was monitored. […] The corresponding BIAcore trace for each DMS clone is indicated with an arrow.

Test [3] addresses T3, human TNFR1 (recombinant, R&D Systems cat no. 636-R1/CF, biotinylated) (human, UniProt P19438 30-211, limits assumed, biotinylated with EZ-Link NHS-LC-LC-biotin).
T3 construct: it is not tied to the BIAcore reagent; also called p55; hTNFR1
T3 sequence (looked up): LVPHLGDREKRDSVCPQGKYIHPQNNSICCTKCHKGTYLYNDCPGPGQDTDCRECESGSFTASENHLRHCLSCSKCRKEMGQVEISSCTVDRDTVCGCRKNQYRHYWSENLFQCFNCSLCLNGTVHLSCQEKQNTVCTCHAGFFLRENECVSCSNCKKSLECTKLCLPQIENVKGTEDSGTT
Put plainly: BIAcore, human TNFR1.

Test [4] deals with T4, human TNFR1 on MRC-5 cells (human, UniProt P19438 30-455).
T4 sequence (looked up): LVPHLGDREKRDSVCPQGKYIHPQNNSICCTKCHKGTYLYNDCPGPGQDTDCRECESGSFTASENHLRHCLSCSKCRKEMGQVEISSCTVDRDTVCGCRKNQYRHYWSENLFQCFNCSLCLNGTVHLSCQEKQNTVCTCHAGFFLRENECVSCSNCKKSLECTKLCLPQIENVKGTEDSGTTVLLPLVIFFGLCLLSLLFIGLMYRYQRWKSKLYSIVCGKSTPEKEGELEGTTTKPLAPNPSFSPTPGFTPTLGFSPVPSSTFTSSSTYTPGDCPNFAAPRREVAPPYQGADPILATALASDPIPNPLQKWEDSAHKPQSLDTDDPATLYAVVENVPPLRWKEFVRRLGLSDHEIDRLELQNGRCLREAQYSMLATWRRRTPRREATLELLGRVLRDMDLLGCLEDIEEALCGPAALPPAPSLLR
Put plainly: cell-based or functional assay.

The target in test [5] is T5, mouse TNFR1 (recombinant, R&D Systems cat no. 425-R1-050/CF, biotinylated) (mouse, UniProt P25118 22-212, biotinylated with EZ-Link NHS-LC-LC-biotin).
T5 construct: also called murine TNFR1; biotinylated mouse TNFR1
T5 sequence (looked up): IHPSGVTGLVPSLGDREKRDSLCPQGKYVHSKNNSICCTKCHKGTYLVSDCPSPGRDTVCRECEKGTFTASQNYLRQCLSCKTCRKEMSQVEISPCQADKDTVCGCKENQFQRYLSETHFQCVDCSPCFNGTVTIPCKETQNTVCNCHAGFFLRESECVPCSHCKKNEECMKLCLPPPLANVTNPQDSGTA
Put plainly: BIAcore, mouse TNFR1 on SA chip. The text has this:
(§1) BIAcore was done to determine the association and dissociation rates of the different dAbs and in that way establish their binding affinity for both human and mouse TNFR1. Experiments were done using biotinylated TNFR1 (R&D Systems), of the respective species, coupled to streptavidin-coated BIAcore chips followed by injection of a concentration range of the dAbs.

Test [6] has as its target T3, human TNFR1 (recombinant, R&D Systems …). In words: BIAcore, human TNFR1 on SA chip.
From the text: as §1

The target in test [7] is T6, Cynomologus monkey TNFR1 on CYNOM-K1 cells (Cynomolgus monkey, UniProt Q2PFV5 30-455).
T6 sequence: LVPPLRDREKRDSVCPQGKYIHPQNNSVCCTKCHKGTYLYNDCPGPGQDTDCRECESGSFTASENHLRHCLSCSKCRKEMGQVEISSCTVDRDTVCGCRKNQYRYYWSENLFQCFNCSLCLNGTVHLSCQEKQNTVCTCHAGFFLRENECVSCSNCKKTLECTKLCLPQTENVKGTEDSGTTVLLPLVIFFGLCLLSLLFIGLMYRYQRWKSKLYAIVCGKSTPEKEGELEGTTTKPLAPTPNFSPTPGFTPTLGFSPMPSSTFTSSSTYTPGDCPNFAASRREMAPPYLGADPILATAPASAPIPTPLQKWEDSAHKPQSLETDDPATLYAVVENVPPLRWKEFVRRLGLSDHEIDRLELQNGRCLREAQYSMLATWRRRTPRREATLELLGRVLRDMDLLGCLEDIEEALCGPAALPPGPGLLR
Put plainly: cell-based or functional assay.

Test [8] addresses T7, mouse TNFR1 on L929 cells (mouse, UniProt P25118 30-454).
T7 sequence (looked up): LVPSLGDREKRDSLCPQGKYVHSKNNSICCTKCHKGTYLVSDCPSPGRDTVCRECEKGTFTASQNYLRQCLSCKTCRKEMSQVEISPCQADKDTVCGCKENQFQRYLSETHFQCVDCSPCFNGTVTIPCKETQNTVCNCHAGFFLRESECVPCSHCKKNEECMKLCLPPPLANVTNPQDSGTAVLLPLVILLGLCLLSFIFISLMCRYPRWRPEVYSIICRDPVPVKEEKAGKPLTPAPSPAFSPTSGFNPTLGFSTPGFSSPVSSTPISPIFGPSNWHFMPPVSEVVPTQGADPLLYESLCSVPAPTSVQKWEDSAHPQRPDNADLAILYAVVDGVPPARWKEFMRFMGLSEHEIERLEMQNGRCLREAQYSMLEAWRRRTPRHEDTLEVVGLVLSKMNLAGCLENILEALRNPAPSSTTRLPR
In words: cell-based or functional assay.

Test [9] deals with T4, human TNFR1 on MRC-5 cells. Put plainly: cell-based or functional assay. This is another data set of the same source.

T2 sequence (P02768 25-609 limits assumed): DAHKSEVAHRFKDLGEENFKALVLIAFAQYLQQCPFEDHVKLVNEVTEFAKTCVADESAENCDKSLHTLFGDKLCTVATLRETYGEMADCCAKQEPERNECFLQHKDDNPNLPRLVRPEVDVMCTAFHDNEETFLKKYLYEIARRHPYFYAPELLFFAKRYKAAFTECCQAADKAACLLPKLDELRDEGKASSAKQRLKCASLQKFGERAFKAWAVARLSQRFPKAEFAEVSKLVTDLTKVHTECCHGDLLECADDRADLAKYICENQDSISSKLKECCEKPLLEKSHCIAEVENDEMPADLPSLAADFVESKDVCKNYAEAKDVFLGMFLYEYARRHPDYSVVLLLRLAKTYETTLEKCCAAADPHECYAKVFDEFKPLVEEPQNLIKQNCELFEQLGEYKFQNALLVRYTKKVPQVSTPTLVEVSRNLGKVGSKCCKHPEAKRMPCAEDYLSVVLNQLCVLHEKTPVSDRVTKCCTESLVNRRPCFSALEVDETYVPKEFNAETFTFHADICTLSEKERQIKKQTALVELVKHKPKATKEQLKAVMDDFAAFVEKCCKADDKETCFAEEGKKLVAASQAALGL

B1: DMS0190 (bispecific antibody)
chain: EVQLLESGGGLVQPGGSLRLSCAASGFTFVKYSMGWVRQAPGKGPEWVSQISNTGDRTYYADSVKGRFTISRDNSKNTLYLQMNSLRAEDTAVYYCAIYTGRWEPFDYWGQGTLVTVSSASTSGPSDIQMTQSPSSLSASVGDRVTITCRASRPIGTTLSWYQQKPGKAPKLLILWNSRLQSGVPSRFSGSGSGTDFTLTISSLQPEDFATYYCAQAGTHPTTFGQGTKVEIKRAAAEQKLISEEDLN
notes: anti-TNFR1 dAb / AlbudAb in-line fusion
Broadly, the koff is a measure of how fast the partners let go of each other. For the molecule B1, the koff in [1] came out at 0.16 s⁻¹; in [2], 0.019 s⁻¹.

B2: DMS0192 (bispecific antibody)
chain: EVQLLESGGGLVQPGGSLRLSCAASGFTFVKYSMGWVRQAPGKGPEWVSQISNTGDRTYYADSVKGRFTISRDNSKNTLYLQMNSLRAEDTAVYYCAIYTGRWEPFDYWGQGTLVTVSSASTSGPSDIQMTQSPSSLSASVGDRVTITCRASQSIIKHLKWYQQKPGKAPKLLIYGASRLQSGVPSRFSGSGSGTDFTLTISSLQPEDFATYYCQQGARWPQTFGQGTKVEIKRAAAEQKLISEEDLN
notes: as for B1
Take B2: the koff in test [1] came to 0.09 s⁻¹. Moreover, the binding result in test [2] is given as “no binding (tested: 1 µM)”.

B3: DMS0191 (bispecific antibody)
chain: EVQLLESGGGLVQPGGSLRLSCAASGFTFVKYSMGWVRQAPGKGPEWVSQISNTGDRTYYADSVKGRFTISRDNSKNTLYLQMNSLRAEDTAVYYCAIYTGRWEPFDYWGQGTLVTVSSASTDIQMTQSPSSLSASVGDRVTITCRASQSIIKHLKWYQQKPGKAPKLLIYGASRLQSGVPSRFSGSGSGTDFTLTISSLQPEDFATYYCQQGTRWPQTFGQGTKVEIKRAAAEQKLISEEDLN
notes: as for B1
Consider B3, for which, in [1], the koff turned out to be 0.11 s⁻¹. For the same molecule, in [2], the binding result is on record as “no binding (tested: 1 µM)”.

B4: DOM1h-574-18 (other)
VH: EVQLLESGGGLVQPGGSLRLSCAASGFTFGKYSMGWVRQAPGKDLEWVSQISNTGDRTYYADSVKGRFTISRDNSKNTLYLQMNSLRAEDTAVYYCAIYTGRWEPFDYWGQGTLVTVSS
notes: VH dAb
As a reminder, the Kd is the free concentration of one partner at which half of the binding sites on the other are occupied at equilibrium, for simple one-to-one binding. For the molecule B4, the Kd in test [3] amounted to 4.1 nM. In [4], the “MRC-5 ND50 (TNFα-mediated IL-8 release)” value was 17 nM.

B5: DOM1h-574-109 (other)
VH: EVQLLESGGGLVQPGGSLRLSCAASGFTFVKYSMGWVRQAPGKGLEWVSQISDTADRTYYAHSVKGRFTISRDNSKNTLYLQMNSLRAEDTAVYYCAIYTGRWVPFEYWGQGTLVTVSS
notes: VH dAb
As usually defined, the kon is a measure of how fast the partners come together. As to B5, in [5], the Kd amounted to 2.8 nM, the koff amounted to 0.00033 s⁻¹ and the kon is 120000 M⁻¹ s⁻¹. Besides, in test [6], the Kd turned out to be 0.23 nM, the koff came to 5.5e-05 s⁻¹ and the kon was found to be 240000 M⁻¹ s⁻¹. Also, the “Cynomologus CYNOM-K1 ND50” value in test [7] came out at 2.3 nM. In test [8], the “Mouse L929 ND50” value was 20 nM. Moreover, in test [9], the “Human MRC5 ND50” value turned out to be 1.8 nM.

B6: DOM1h-574-162 (other)
VH: EVQLLESGGGLVQPGGSLRLSCAASGFTFFKYSMGWVRQAPGKGLEWVSQISDTADRTYYSHSVKGRFTISRDNSKNTLYLQMNSLRAEDTAVYYCAIYTGRWVPFEYWGQGTLVTVSS
notes: VH dAb
For the molecule B6, in test [5], the Kd was found to be 2.5 nM, the koff turned out to be 0.00034 s⁻¹ and the kon stood at 140000 M⁻¹ s⁻¹. For the same molecule, in test [6], the Kd was found to be 0.15 nM, the koff was 4.4e-05 s⁻¹ and the kon turned out to be 290000 M⁻¹ s⁻¹. In addition, in test [8], the “Mouse L929 ND50” value amounted to 27 nM. Further, the “Human MRC5 ND50” value in test [9] is 1.2 nM.

B7: DOM1h-574-139 (other)
VH: EVQLLESGGGLVQPGGSLRLSCAASGFTFLKYSMGWVRQAPGKGLEWVSQISDTADRTYYAHSVKGRFTISRDNSKNTLYLQMNSLRAEDTAVYYCAIYTGRWAPFEYWGQGTLVTVSS
notes: VH dAb
As to B7, in test [5], the Kd turned out to be 4.4 nM, the koff was 0.0003 s⁻¹ and the kon is 70000 M⁻¹ s⁻¹. Moreover, in [6], the Kd worked out at 0.27 nM, the koff is 3.7e-05 s⁻¹ and the kon stood at 140000 M⁻¹ s⁻¹. Also, the “Cynomologus CYNOM-K1 ND50” value in test [7] was 1.8 nM. In test [8], the “Mouse L929 ND50” value was found to be 28 nM. Moreover, in test [9], the “Human MRC5 ND50” value was found to be 1.1 nM.

B8: DOM1h-574-156 (other)
VH: EVQLLESGGGLVQPGGSLRLSCAASGFTFFKYSMGWVRQAPGKGLEWVSQISDTADRTYYAHSVKGRFTISRDNSKNTLYLQMNSLRAEDTAVYYCAIYTGRWVPFEYWGQGTLVTVSS
notes: VH dAb
On to B8, for which, in test [5], the Kd was found to be 2.1 nM, the koff amounted to 0.0003 s⁻¹ and the kon worked out at 140000 M⁻¹ s⁻¹. In test [6], the Kd came to 0.15 nM, the koff turned out to be 4.3e-05 s⁻¹ and the on-rate (kon) is 300000 M⁻¹ s⁻¹. Also, in test [8], the “Mouse L929 ND50” value was found to be 22 nM. Further, the “Human MRC5 ND50” value in [9] came to 0.9 nM.

B9: DMS0189 (bispecific antibody)
chain: EVQLLESGGGLVQPGGSLRLSCAASGFTFVKYSMGWVRQAPGKGPEWVSQISNTGDRTYYADSVKGRFTISRDNSKNTLYLQMNSLRAEDTAVYYCAIYTGRWEPFDYWGQGTLVTVSSASTDIQMTQSPSSLSASVGDRVTITCRASRPIGTTLSWYQQKPGKAPKLLILWNSRLQSGVPSRFSGSGSGTDFTLTISSLQPEDFATYYCAQAGTHPTTFGQGTKVEIKRAAAEQKLISEEDLN
notes: as for B1
On to B9, for which the koff came to 0.13 s⁻¹ in [1] and 0.017 s⁻¹ in test [2].
